# T1: cynomolgus monkey PVRIG expressed on cells (cynomolgus monkey, UniProt A0A2K5WVV8 1-322)
# T1 construct: whole, on cells; also called Monkey PVRIG FACS; cells overexpressing cynomolgus monkey PVRIG
# T1 sequence: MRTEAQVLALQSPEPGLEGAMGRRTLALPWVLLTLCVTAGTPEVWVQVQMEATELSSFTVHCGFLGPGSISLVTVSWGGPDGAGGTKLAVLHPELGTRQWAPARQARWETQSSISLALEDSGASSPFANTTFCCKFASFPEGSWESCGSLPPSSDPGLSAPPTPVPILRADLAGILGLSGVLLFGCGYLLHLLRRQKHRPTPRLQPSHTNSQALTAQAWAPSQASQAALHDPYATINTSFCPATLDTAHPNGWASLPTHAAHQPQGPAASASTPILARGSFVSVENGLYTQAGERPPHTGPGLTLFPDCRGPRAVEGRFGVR
# T2: human PVRIG expressed on cells (human, UniProt Q6DKI7 41-326)
# T2 construct: whole, on cells; also called Human PVRIG FACS; cells overexpressing human PVRIG
# T2 sequence (looked up): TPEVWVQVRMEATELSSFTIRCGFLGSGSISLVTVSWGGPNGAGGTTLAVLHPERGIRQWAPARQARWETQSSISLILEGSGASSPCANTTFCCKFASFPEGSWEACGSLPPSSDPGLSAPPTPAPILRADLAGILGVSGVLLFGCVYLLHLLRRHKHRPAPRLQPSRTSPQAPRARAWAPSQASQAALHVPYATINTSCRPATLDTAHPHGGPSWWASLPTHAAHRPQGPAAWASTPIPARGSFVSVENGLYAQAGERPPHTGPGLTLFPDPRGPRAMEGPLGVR
# Experiments:
# [1] = biological target: T1, cynomolgus monkey PVRIG expressed on …; test: FACS, HEK293 cells overexpressing target
# Experimental: (§1) The expression plasmid carrying human or cynomolgus monkey PVRIG gene sequence was transfected into HEK293 cells, and the over-expressing stable transfection monoclonal cell strain was obtained by antibiotic screening and infinite dilution. Overexpressing cells were seeded into a 96-well plate at 2×10⁵ cells/per well. The cells were centrifuged at 300 g for 5 min, the supernatant was then removed, 100 μL of the test antibody was added, and the mixture was incubated at 4° C. for 1 h. The mixture was centrifuged, the supernatant was removed, the plate was washed 3 times with 200 μL of wash buffer (PBS+2% FBS), and then 100 μL of an anti-human IgG secondary antibody (Invitrogen, A-11013) labeled with Alexa Fluor 488 diluted at 1:500 was added. The mixture was incubated at 4° C. for 1 h. The plate was centrifuged, and the supernatant was removed. The plate was washed 3 times with 200 μL of wash buffer (PBS+2% FBS). The cells were resuspended in 100 μL of PBS and tested on a flow cytometer (BD FACS Calibur or BD FACS Canto_II).
# (§2) Binding of the humanized anti-PVRIG antibodies to human or cynomolgus monkey PVRIG was detected by using a flow cytometer according to the method of Example 5.
# [2] = biological target: T2, human PVRIG expressed on cells; test: FACS, HEK293 cells overexpressing target
# Experimental: as §1, §2
EC50 [1],EC50 [2],Binder
0.374 nM,0.024 nM,"humanized anti-PVRIG antibody 30H1 (antibody, human IgG4 S228P, F234A L235A, V domains shown) VH: EVQLVESGGGLVQPGGSLRLSCAASGFTFSGDCMGWFRQAPGKGLEGVATIDNAGRIKYADSVKGRFTISRDNAKNSLYLQMNSLRAEDTAVYYCAAGWTFGGQCSPADWGQGTQVTVSS"
–,0.068 nM,"humanized anti-PVRIG antibody 38H9 (antibody, human IgG4 S228P, F234A L235A, V domains shown) VH: EVQLVESGGGVVQPGGSLRLSCAASPSTYGPSDMAWFRQAPGKGLEGVATISAAGRLTYYTDSVRGRFTISRDNSKNTMYLQMNSLRAEDTAVYYCAADFAGGSSLFADYKYWGQGTMVTVSS"
0.049 nM,0.04 nM,"humanized anti-PVRIG antibody 38H7 (antibody, human IgG4 S228P, F234A L235A, V domains shown) VH: EVQLVESGGGVVQPGGSLRLSCAASPSTYGPSDMAWFRQAPGKQREGVATISAAGRLTYYTDSVRGRFTISRDNSKNTMYLQMNSLRAEDTAVYYCAADFAGGSSLFADYKYWGQGTMVTVSS"
–,0.065 nM,"humanized anti-PVRIG antibody 38H8 (antibody, human IgG4 S228P, F234A L235A, V domains shown) VH: EVQLVESGGGVVQPGGSLRLSCAASPSTYGPSDMAWFRQAPGKGLEGVATISAAGRLTYYTDSVRGRFTISRDNSKNTLYLQMNSLRAEDTAVYYCAADFAGGSSLFADYKYWGQGTMVTVSS"
0.095 nM,0.062 nM,"humanized anti-PVRIG antibody 38H4 (antibody, human IgG4 S228P, F234A L235A, V domains shown) VH: EVQLVESGGGVVQPGGSLRLSCAASPFTYGPSDMAWFRQAPGKGLEGVATISAAGRLTYYTDSVRGRFTISRDNSKNTLYLQMNSLRAEDTAVYYCAADFAGGSSLFADYKYWGQGTMVTVSS"
3.94 nM,0.004 nM,"humanized anti-PVRIG antibody 151H9 (antibody, human IgG4 S228P, F234A L235A, V domains shown) VH: HVQLVESGGGLVQPGGSLRLSCVASASGFTYRPYCMAWFRQAPGKGLEAVAGIDIFGGTTYADSVKGRFTASRDNAGFSLYLQMNSLRAEDTAVYYCAAGDSPDGRCPPLGQGLNYWGQGTMVTVSS"
0.348 nM,0.005 nM,"humanized anti-PVRIG antibody 39H3 (antibody, human IgG4 S228P, F234A L235A, V domains shown) VH: EVQLVESGGGLVQPGGSLRLSCAASGYTFSTDCMGWFRQAPGKGLEGVAHIDSDGIPRYVESVKGRFTISQDHAKNSLYLQMNSLRAEDTAVYYCVVGFKFGDYCAPNDWGQGTMVTVSS"
0.208 nM,0.006 nM,"humanized anti-PVRIG antibody 39H5 (antibody, human IgG4 S228P, F234A L235A, V domains shown) VH: EVQLVESGGGLVQPGGSLRLSCAASGYTSRTDCMGWFRQAPGKEREGVAHIDSDGIPRYVESVKGRFTISQDHAKNSLYLQMNSLRAEDTAVYYCVVGFKFGDYCAPNDWGQGTMVTVSS"
0.591 nM,0.008 nM,"humanized anti-PVRIG antibody 20H4 (antibody, human IgG4 S228P, F234A L235A, V domains shown) VH: EVQLVESGGGLVQPGGSLRLSCAASGYTSRTDCMGWFRQAPGKGLEGVAHIDSDGIPRYVDSVKGRFTISQDHAKNSLYLQMNSLRAEDTAVYYCVVGFKFDEDYCAPNDWGQGTMVTVSS"
1.5 nM,0.006 nM,"humanized anti-PVRIG antibody 20H3 (antibody, human IgG4 S228P, F234A L235A, V domains shown) VH: EVQLVESGGGLVQPGGSLRLSCAASGYTFSTDCMGWFRQAPGKGLEGVAHIDSDGIPRYVDSVKGRFTISQDHAKNSLYLQMNSLRAEDTAVYYCVVGFKFDEDYCAPNDWGQGTMVTVSS"
0.338 nM,0.006 nM,"humanized anti-PVRIG antibody 20H2 (antibody, human IgG4 S228P, F234A L235A, V domains shown) VH: EVQLVESGGGLVQPGGSLRLSCAASGFTSRTDCMGWFRQAPGKGLEGVAHIDSDGIPRYVDSVKGRFTISRDNAKNSLYLQMNSLRAEDTAVYYCVVGFKFDEDYCAPNDWGQGTMVTVSS"
0.658 nM,0.019 nM,"humanized anti-PVRIG antibody 20H1 (antibody, human IgG4 S228P, F234A L235A, V domains shown) VH: EVQLVESGGGLVQPGGSLRLSCAASGFTFSTDCMGWFRQAPGKGLEGVAHIDSDGIPRYVDSVKGRFTISRDNAKNSLYLQMNSLRAEDTAVYYCVVGFKFDEDYCAPNDWGQGTMVTVSS"
